Measured values: publication PMC8699515, “Native llama Nanobody Library Panning Performed by Phage and Yeast Display Provides Binders Suitable for C-Reactive Protein Detection” (Biosensors, 2021)

B1: anti-CRP nanobody E12 fused to 6xHis-SpyTag (VHH)
VHH: EVQLQASGGGLVQAGGSLRLSCAASRRPSSFKVMGWYRQAPGKQRELVARITSGGSTDYADSVKGRFTISRDNAKNTVYLQMNSLEPEDTAVYYCNAYRWGRDNWGQGTQVTVSS
notes: pET14-derived vector; In the biosensor it was held by SpyCatcher attached to the gold electrode
B2: anti-CRP nanobody A6 displayed on phage (VHH)
VHH: EVQLQASGGGLVRPGGSLRLSCAVSGGTLSNYAVGWFRRAPGNQRELVATFTSGGTTLYADSVKGRFTISRDNLKNTVYLQMNSLKPEDTAVYYCAAKPGRASSQATDYDAWGQGTQVTVSS
notes: source: E. coli TG1 with M13K07 helper phage, phages in culture supernatant
B3: anti-CRP nanobody B9 displayed on phage (VHH)
VHH: EVQLQASGGGSVQAGGSLRLSCATSGIIFRNNIMTWYRQAPGKNRELVATITTGGSTNYSDSVKGRFTISRDNTKNTVYLQMSNLKPDDTGVYYCNARRNRFLTGSYGQGTQVTVSS
notes: as for B2
B4: anti-CRP nanobody A12 displayed on phage (VHH)
VHH: EVQLQASGGGLVQAGGSLGLSCAASTRAFSTYAMGWFRQVPGKEREFVAAISSGGSTVYADSVKGRFTISRDNAKNTVYLQMNNLRPEDTAVYYCAARQGIVVRSPTRMDYWGQGTQVTVSS
notes: as for B2
B5: anti-CRP nanobody C1 displayed on phage (VHH)
VHH: DVQLQASGGGLVQPGGSLRLSCRAPRMVFRRNVMGWFRQAPGKQRELVAYITNDGVTKYTDSVKGRFTISRDNAENTMYLQMNNLKTEDTAVYYCNVRRVLGIAGYWGQGTQVTVSS
notes: as for B2
B6: anti-CRP nanobody C10 displayed on phage (VHH)
VHH: EVQLQASGGGLVQAGGSLRLSCAASGRTFSNYGMGWFRQAPGKEREFVAAITSGGSTYYRDSVKGRFTISRDNAKNTVYLQMNSLKPDDTAVYYCAASRGVTAIWGSSYDYWGQRTLVTVSS
notes: C10 gave no soluble 6xHis-SpyTag construct; source: E. coli TG1 with M13K07 helper phage, phages in culture supernatant
B7: anti-CRP nanobody E12 displayed on phage (VHH)
VHH: B1 VHH
notes: as for B2
B8: anti-CRP nanobody A10 displayed on phage (VHH)
VHH: EVQLQASGGGLVQAGGSLRLSCVASRSILSLAVMGWYRQAPGKERELVASITSGGNTNYADVVKGRFIISRDNAKNTVNLQMNTLRPEDTAVYYCSAKSILTGPNHWRQETQVTVSS
notes: as for B2
B9: anti-CRP nanobody A6 fused to 6xHis-SpyTag (VHH)
VHH: B2 VHH
notes: pET14-derived vector
B10: anti-CRP nanobody B9 fused to 6xHis-SpyTag (VHH)
VHH: B3 VHH
notes: pET14-derived vector
B11: anti-CRP nanobody H7 fused to 6xHis-SpyTag (VHH)
VHH: EVQLQASGGGLVQAGGSLRLSCAASGRTFSSYATGWYRQAPGKERELVAAISSGGSTYYADSVKGRFTISRDNAKNTVYLQMNSLKAEDTAVYYCAGGRRVGVLIGNEYDYWGQGTLVTVSS
notes: pET14-derived vector
B12: anti-CRP nanobody A12 fused to 6xHis-SpyTag (VHH)
VHH: B4 VHH
notes: pET14-derived vector
B13: C-reactive protein (CRP) from human pleural fluid (natural protein, UniProt P02741 19-224, looked up)
chain: QTDMSRKAFVFPKESDTSYVSLKAPLTKPLKAFTVCLHFYTELSSTRGYSIFSYATKRQDNEILIFWSKDIGYSFTVGGSEILFEVPEVTVAPVHICTSWESASGIVEFWVDGKPRVRKSLKKGYTVGAEASIILGQEQDSFGGNFEGSQSLVGDIGNVNMWDFVLSPDEINTIYLGGPFSPNVLNWRALKYEVQGEVFTKPQLWP
notes: C-reactive protein, human, purified from pleural fluid; source: bought: LEE Biosolutions (from human pleural fluid)

These binders were tested against T1, BSA (Bos taurus, UniProt P02769) (assay: electrochemical impedance spectroscopy; gold electrode carrying E12-SpyTag held by SpyCatcher; CRP or BSA in solution; room temperature, 0.1 M KNO3 with 5 mM K3[Fe(CN)6]/K4[Fe(CN)6]; triplicate). Settings: both partners purified.
T1 construct: BSA (serum albumin), used as negative control
T1 sequence (P02769 25-607): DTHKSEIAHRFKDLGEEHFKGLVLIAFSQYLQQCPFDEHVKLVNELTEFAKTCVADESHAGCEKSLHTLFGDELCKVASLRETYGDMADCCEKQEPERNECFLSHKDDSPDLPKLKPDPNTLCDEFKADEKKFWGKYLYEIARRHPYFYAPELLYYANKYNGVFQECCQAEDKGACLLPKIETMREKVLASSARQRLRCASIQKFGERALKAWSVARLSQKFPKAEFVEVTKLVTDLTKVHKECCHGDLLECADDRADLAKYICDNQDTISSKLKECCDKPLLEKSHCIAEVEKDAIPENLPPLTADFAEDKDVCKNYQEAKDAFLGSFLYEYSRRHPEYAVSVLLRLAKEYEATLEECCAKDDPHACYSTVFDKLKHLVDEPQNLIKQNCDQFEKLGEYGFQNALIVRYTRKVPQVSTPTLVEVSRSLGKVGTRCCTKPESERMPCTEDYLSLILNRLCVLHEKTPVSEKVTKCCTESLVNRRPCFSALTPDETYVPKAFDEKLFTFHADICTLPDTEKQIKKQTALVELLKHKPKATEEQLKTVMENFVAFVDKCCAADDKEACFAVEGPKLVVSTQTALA
B1: no binding (tested: 1 μg/mL).

The binders below were run against B13 (assay: ELISA; phage screening ELISA: CRP 0.25 ug/well coated overnight at 4 C on MaxiSorp, saturated with 3% BSA-PBS; phages in culture supernatant (100 uL, not normalised) 2 h at room temperature; anti-M13 HRP, TMB, absorbance at 450 nm; ratio of the CRP signal to the BSA control, triplicates). Settings: one partner purified.
For B2, the “Screening ELISA (CRP/BSA Signal)” value was 11.8.
B3 was tested, and the “Screening ELISA (CRP/BSA Signal)” value was 14.6.
With B4 the “Screening ELISA (CRP/BSA Signal)” value was 15.5.
B5 was tested, and the “Screening ELISA (CRP/BSA Signal)” value was 12.5.
For B6, the “Screening ELISA (CRP/BSA Signal)” value was 14.6.
With B7 the “Screening ELISA (CRP/BSA Signal)” value was 13.3.
With B8 the “Screening ELISA (CRP/BSA Signal)” value was 12.3.

What follows are binders tested against B13 (assay: ELISA; CRP (0.5 ug/well) or BSA coated overnight at 4 C; purified nanobodies 0.5 ug/well (A6, A12, B9, H7) or 0.1 ug/well (E12) in 2% BSA in PBS, 2 h at room temperature; anti-His and anti-mouse HRP, TMB). Settings: both partners purified.
Binder B9 has an ELISA signal of 0.476.
B10 gave an ELISA signal of 1.56.
With B11 the ELISA signal was 1.47.
With B12 the ELISA signal was 1.23.
For B1, the ELISA signal was 2.84.

What follows are binders tested against B13 (assay: BLI; Octet K2; CRP (25 nM) in PBS immobilised on aminopropylsilane (APS) tips, blocked with 1% BSA/PBS; nanobodies 10-1200 nM in 0.1% BSA/PBS; 30 C; 1:1 model, global fit). Settings: both partners purified.
B9 showed a Kd of 51 nM.
Work on B11 yielded a Kd of 154 nM.
Binder B12 has a Kd of 122 nM.
B1 showed a Kd of 13 nM.

Each binder was assayed against B13 (assay: ELISA; CRP (0.5 ug/well) or BSA coated 2 h at 37 C; purified nanobodies 0.5 ug/well (A6, A12, B9, H7) or 0.1 ug/well (E12) in 2% BSA in PBS, 2 h at room temperature; anti-His and anti-mouse HRP, TMB). Settings: both partners purified.
With B9 the ELISA signal was 0.231.
B10 was tested, and the ELISA signal was 2.28.
B11 gave an ELISA signal of 0.904.
B12 showed an ELISA signal of 0.974.
With B1 the ELISA signal was 2.6.

The binders below were run against T2, E12 fused to mouse Fc (E12-mFc) (llama) (assay: ELISA; short protocol (coating 2 h at 37 C) with CRP 1 to 10 ug/mL; 25 ug/mL E12-mFc; anti-mouse HRP, TMB; triplicate). Settings: both partners purified.
T2 construct: as the VHH of m7
B13: binds.
